From the supplement of paper PMC9170038

System: MS2 coat protein
Experiment: apparent KD of MS2 coat protein; higher = weaker reporter binding
Details: Eterna round: R107
Method in brief: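 On-chip transcription from Illumina sequencing clusters produced the designed RNA switches. These were titrated with SNAP-549-labelled MS2 coat protein (twofold steps, 0.7 or 1.5 nM to 3 µM) in 100 mM Tris-HCl pH 7.5, 80 mM KCl, 4 mM MgCl2, with or without constant ligand. The apparent KD given is the per-design median of normalised cluster binding-curve fits.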

[1] = input ligand: theophylline 20 uM
[2] = input ligand: theophylline 2 mM
[3] = input ligand: tryptophan 2.4 mM

**Q.** For “UAUACAUGAGGAUCACCCAUGUGCCAUGAUACCAGACAUGAAAAUGUCCCUUGGCAGCAUGGGAGAUGUAUAGCGGGAAACCCGA [Turany]”, which “apparent KD of MS2 coat protein” value (input ligand: arginine 13.2 mM) is on record?
**A.** 22.4 nM

**Q.** And the “apparent KD of MS2 coat protein” value (input ligand: none)?
**A.** 38.9 nM

**Q.** What about the “apparent KD of MS2 coat protein” value [1] of the same sequence?
**A.** 198 nM

**Q.** What about the “apparent KD of MS2 coat protein” value [2] of the same sequence?
**A.** 677 nM

**Q.** What about the “apparent KD of MS2 coat protein” value [3] of the same sequence?
**A.** 42.6 nM

**Q.** What does the source list for “UAUACAUGGGAUACCAUGGAUCCGAGUGAUACCAGCUAUCCGAAUAGCCCUUGGCAGCACAGUACAUGAGGAUCACCCAUGUAUA [Theo A SS t5]”?
**A.** apparent KD of MS2 coat protein (input ligand: arginine 13.2 mM): 27.8 nM; apparent KD of MS2 coat protein [1]: 30.2 nM; apparent KD of MS2 coat protein [3]: 18.6 nM

**Q.** How did the “apparent KD of MS2 coat protein” value (input ligand: arginine 13.2 mM) turn out when “UAUAUAUAACAUGAGGAUCACCCAUGUAAACGAGGACCGGUACGGCCGCCACUCGGCCGGCAAGGGAGAGGACGGGAAACCGUCG [ETA NP+V+V2 #26]” was run?
**A.** 12.1 nM

**Q.** What about the “apparent KD of MS2 coat protein” value (input ligand: none) of the same sequence?
**A.** 12.8 nM

**Q.** And the “apparent KD of MS2 coat protein” value [1]?
**A.** 23.1 nM

**Q.** And the “apparent KD of MS2 coat protein” value [2]?
**A.** 23 nM

**Q.** What about the “apparent KD of MS2 coat protein” value [3] of the same sequence?
**A.** 24.4 nM

**Q.** How did the “apparent KD of MS2 coat protein” value (input ligand: arginine 13.2 mM) turn out when “UAUAUAUAUCACGAACUGUGGUGUAUGUCCCGAGGACCGGUACGGCCGCCACUCGCGUGGUUCCACAUGAGGAUCACCCAUGUUG [XTryp A #7]” was run?
**A.** 20.9 nM

**Q.** And the “apparent KD of MS2 coat protein” value [1]?
**A.** 31.3 nM

**Q.** And the “apparent KD of MS2 coat protein” value [2]?
**A.** 25.9 nM

**Q.** Which results are given for “UAUCCACAUGAGGAUCACCCAUGUAGGGAAGGAGCGGUGAUUUCACCAGGUAGGUCGCCUUGCUGAGGGUUGCCGGUGGAAUCGU [Exclusion - Arginine A (Freestyle 33)]”?
**A.** apparent KD of MS2 coat protein (input ligand: arginine 13.2 mM): 12.5 nM; apparent KD of MS2 coat protein (input ligand: none): 15.7 nM; apparent KD of MS2 coat protein [1]: 14.8 nM; apparent KD of MS2 coat protein [2]: 13.1 nM; apparent KD of MS2 coat protein [3]: 16.2 nM

**Q.** Which “apparent KD of MS2 coat protein” value (input ligand: arginine 13.2 mM) does the source give for “UAUCCACAUGAGGAUCACCCAUGUUAGGAAGGAGCGGUGAAUGAACCAGGUAGGUCGCCUAGCUGAGGACCAUCAAUGGAUUCGU [Exclusion - Arginine A (Freestyle 14)]” here?
**A.** 18.1 nM

**Q.** And the “apparent KD of MS2 coat protein” value (input ligand: none)?
**A.** 31.8 nM

**Q.** What about the “apparent KD of MS2 coat protein” value [1] of the same sequence?
**A.** 35.4 nM

**Q.** What about the “apparent KD of MS2 coat protein” value [2] of the same sequence?
**A.** 36.8 nM

**Q.** What about the “apparent KD of MS2 coat protein” value [3] of the same sequence?
**A.** 38.1 nM

**Q.** Which “apparent KD of MS2 coat protein” value (input ligand: arginine 13.2 mM) does the source give for “UAUCCACAUGAGGAUCACCCAUGUUAGGAAGGAGCGGUGAAUGAACCAGGUAGGUCGCCUAGCUGAGGACCAUCGAUGGAUUCGU [Exclusion - Arginine A (Freestyle 15)]” here?
**A.** 17 nM

**Q.** And the “apparent KD of MS2 coat protein” value (input ligand: none)?
**A.** 20.3 nM

**Q.** And the “apparent KD of MS2 coat protein” value [1]?
**A.** 25.5 nM

**Q.** And the “apparent KD of MS2 coat protein” value [2]?
**A.** 27.5 nM

**Q.** What about the “apparent KD of MS2 coat protein” value [3] of the same sequence?
**A.** 20.1 nM

**Q.** What does the source list for “UAUCGUCAGACGGCCGCCACUAGAACAUGAGGAUCACCCAUGUAGGCGGCCGAUUCCUCAUGAACUAGGACCGGGUCUGACGAAU [(Trp1)-(Ms2)-(T)'-(M)'-(Trp2)_Design12]”?
**A.** apparent KD of MS2 coat protein (input ligand: arginine 13.2 mM): 8.18 nM; apparent KD of MS2 coat protein (input ligand: none): 6.6 nM; apparent KD of MS2 coat protein [1]: 26 nM; apparent KD of MS2 coat protein [2]: 8.89 nM; apparent KD of MS2 coat protein [3]: 13.3 nM

**Q.** Which “apparent KD of MS2 coat protein” value (input ligand: arginine 13.2 mM) does the source give for “UCAAGUGAACCAUGGAAACAUUCAAUAGAUACCAGCAUUAAAACCUGCCCUUGGCAGCUAUGAACAUGAGGAUCACCCAUGUGAA [theeternabot_exclusion_MS2_Theo_A_21]” here?
**A.** 17.3 nM

**Q.** And the “apparent KD of MS2 coat protein” value [1]?
**A.** 23.3 nM

**Q.** And the “apparent KD of MS2 coat protein” value [3]?
**A.** 19.2 nM

**Q.** With “UCGACAAGAACAAUAAACAGCACUUGAGAAGGAGCGCGGAAAUCCGCAGGUAGGUCGCUCAUGUGUACAUGAGGAUCACCCAUGU [Inveonxeed]” as the sequence, how does the “apparent KD of MS2 coat protein” value (input ligand: arginine 13.2 mM) read?
**A.** 32.6 nM

**Q.** And the “apparent KD of MS2 coat protein” value (input ligand: none)?
**A.** 39.7 nM

**Q.** What about the “apparent KD of MS2 coat protein” value [1] of the same sequence?
**A.** 49.3 nM

**Q.** What about the “apparent KD of MS2 coat protein” value [2] of the same sequence?
**A.** 40.8 nM

**Q.** What about the “apparent KD of MS2 coat protein” value [3] of the same sequence?
**A.** 34.5 nM

**Q.** What does the source list for “UCGCGAUAGAGAAGGAGCGUCAACACCACUUAACAUGAGGAUCACCCAUGUGUUACUUUGUGACAGGUAGGUCGCUCUAGCGCUU [JR_Nu_ExcArginiB_Sub026]”?
**A.** apparent KD of MS2 coat protein (input ligand: arginine 13.2 mM): 21.1 nM; apparent KD of MS2 coat protein (input ligand: none): 19.3 nM; apparent KD of MS2 coat protein [1]: 25.3 nM; apparent KD of MS2 coat protein [2]: 20.9 nM; apparent KD of MS2 coat protein [3]: 18.4 nM

**Q.** What does the source list for “UCGCUCUGGGUGAAUCCCAGAGAUAUGGAAGGAGCGGACGAAAGUCCAGGUAGGUCGCCAUCGAACAUGAGGAUCACCCAUGUAC [Same State - Arginine A (Freestyle 27)]”?
**A.** apparent KD of MS2 coat protein (input ligand: arginine 13.2 mM): 62.1 nM; apparent KD of MS2 coat protein (input ligand: none): 47.6 nM; apparent KD of MS2 coat protein [1]: 57.8 nM; apparent KD of MS2 coat protein [2]: 76.6 nM; apparent KD of MS2 coat protein [3]: 76.8 nM

**Q.** For “UCGUUUUAGUCGGCCGCCACUGUAUGCAUGUUUAACAUGAGGAUCACCCAUGUCCCGUACUAUUUCAGGACCGGGACGUAAUCGA [JR_SSTryptoB_Sub007]”, which “apparent KD of MS2 coat protein” value (input ligand: arginine 13.2 mM) is on record?
**A.** 140 nM

**Q.** What about the “apparent KD of MS2 coat protein” value [1] of the same sequence?
**A.** 301 nM

**Q.** And the “apparent KD of MS2 coat protein” value [2]?
**A.** 484 nM

**Q.** Which results are given for “UCGUUUUAGUCGGCCGCCACUGUGAGCAUGGUUAACAUGAGGAUCACCCAUGUCCCGUACUAUAACAGGACCGGGACGUAGUUGC [#09 Same State - Tryptophan B]”?
**A.** apparent KD of MS2 coat protein (input ligand: arginine 13.2 mM): 76.4 nM; apparent KD of MS2 coat protein [1]: 109 nM; apparent KD of MS2 coat protein [2]: 253 nM

**Q.** For “UCUUUCUAUUGUGAUACCAGACGUACAUGAGGAUCACCCAUGUUUCAUUCUUGUUUUAAAGUCCCUUGGCAGCACUAUUUGUUCG [JR_Nu_ExcTheophyB_Sub028]”, which “apparent KD of MS2 coat protein” value (input ligand: arginine 13.2 mM) is on record?
**A.** 19.6 nM

**Q.** What about the “apparent KD of MS2 coat protein” value [1] of the same sequence?
**A.** 23.9 nM

**Q.** And the “apparent KD of MS2 coat protein” value [3]?
**A.** 15.9 nM
